Experimental findings from patent publication US20230312742A1 (Y MABS THERAPEUTICS, published 2023) are described below.

Broadly, the Kd is a measure of binding affinity in units of concentration. The EC50 (read off the curve) is the concentration needed to bring the measured effect to its halfway point. Higher therefore signals a less potent agent. A word on the kon: it is the second-order rate constant of association. The term koff denotes the rate constant with which the complex falls apart.

Substitutions are numbered along the chain they refer to. Names and notes keep the numbering of the source.

The target in experiment [1] is T1, human CD38 antigen (recombinant human CD38 protein) (human, UniProt P28907 43-300, limits assumed). The experiment can be described thus: SPR, His-tagged SADA construct captured on a NiHC200M chip, recombinant human CD38 protein injected. On the technique in general: SPR reads the build-up and loss of mass on a sensor chip optically.
In experiment [2] the target is T2, CD38 on CD38(+) cancer cells (RPMI8226, Raji, Daudi) (UniProt P28907 1-300, limits assumed).
T2 construct: whole, on cells; Endogenous CD38 on tumour cell lines; also called CD38(+) tumor cells; CD38(+) Raji cells
The experiment can be described thus: flow cytometry on Raji cells, detection with an anti-his tag antibody. For orientation: Flow cytometry measures light scatter and fluorescence of single cells or particles in a stream.

Experiment [3] concerns the target T1, human CD38 antigen (recombinant human …). Put plainly: SPR, His-tagged SADA captured on NiHC200M chip, recombinant human CD38 in solution; average.
Experiment [4] deals with T2, CD38 on CD38(+) cancer cells (RPMI8226, …). Put plainly: flow cytometry on RPMI 8226 cells, detection with an anti-his tag antibody.
Experiment [5] deals with T1, human CD38 antigen (recombinant human …). Put plainly: SPR, construct captured on immobilised protein-L (HC30M chip), human CD38 antigen flown over.
Experiment [6] has the same target. The experiment can be described thus: SPR, antibody captured on Protein-L chip, human CD38 in solution; humanized 8DC3.
Experiment [7] has the same target. Put plainly: SPR, His-tagged SADA construct captured on a NiHC200M chip, recombinant human CD38 protein injected. This is another data set of the same source.

B1: 8DC-5 (anti-CD38 scFv-(G4S)4-huC825 anti DOTA scFv-linker-P53-linker-His tag) (bispecific antibody)
chain: DIQLTQSPSSLSASVGDRVTITCKASEDIYNRLTWYQQKPGKAPKLLISGATSLETGVPSRFSGSGSGKDYTFTISSLQPEDFATYYCQQYWSNPYTFGCGTKLEIKGGGGSGGGGSGGGGSGGGGSGGGGSGGGGSQVQLQESGPGLVKPSETLSLTCTVSGFSLTSYGVHWVRQPPGKCLEWIGVMWRGGSTDYNAAFKSRVTISKDNSKNQVSLKLSSVTAADTAVYYCAKSMITTGFVMDSWGQGTLVTVSSGGGGSGGGGSGGGGSGGGGSHVQLVESGGGLVQPGGSLRLSCAASGFSLTDYGVHWVRQAPGKGLEWLGVIWSGGGTAYNTALISRFTISRDNSKNTLYLQMNSLRAEDTAVYYCARRGSYPYNYFDAWGCGTLVTVSSGGGGSGGGGSGGGGSGGGGSGGGGSGGGGSQAVVTQEPSLTVSPGGTVTLTCGSSTGAVTASNYANWVQQKPGQCPRGLIGGHNNRPPGVPARFSGSLLGGKAALTLLGAQPEDEAEYYCALWYSDHWVIGGGTKLTVLGTPLGDTTHTSGKPLDGEYFTLQIRGRERFEMFRELNEALELKDAQAGKEPGGSGGAPHHHHHH
notes: SADA construct with VL8 and VH11 (extra disulfide in the anti-CD38 scFv), VL-VH order
Take B1: the Kd in experiment [1] amounted to 214 pM; in experiment [3] it was 170 pM. Besides, the half-maximal effective concentration (EC50 (read off the curve)) in experiment [2] is about 0.07 µg/mL; in experiment [4] it was about 0.05 µg/mL. Further, the kon in experiment [3] worked out at 96000 M⁻¹ s⁻¹.

B2: 8DC-3 (anti-CD38 scFv-(G4S)4-huC825 anti DOTA scFv-linker-P53-linker-His tag) (bispecific antibody)
chain: QVQLQESGPGLVKPSETLSLTCTVSGFSLTSYGVHWVRQPPGKGLEWIGVMWRGGSTDYNAAFKSRVTISKDNSKNQVSLKLSSVTAADTAVYYCAKSMITTGFVMDSWGQGTLVTVSSGGGGSGGGGSGGGGSGGGGSGGGGSGGGGSDIQLTQSPSSLSASVGDRVTITCKASEDIYNRLTWYQQKPGKAPKLLISGATSLETGVPSRFSGSGSGKDYTFTISSLQPEDFATYYCQQYWSNPYTFGQGTKLEIKGGGGSGGGGSGGGGSGGGGSHVQLVESGGGLVQPGGSLRLSCAASGFSLTDYGVHWVRQAPGKGLEWLGVIWSGGGTAYNTALISRFTISRDNSKNTLYLQMNSLRAEDTAVYYCARRGSYPYNYFDAWGCGTLVTVSSGGGGSGGGGSGGGGSGGGGSGGGGSGGGGSQAVVTQEPSLTVSPGGTVTLTCGSSTGAVTASNYANWVQQKPGQCPRGLIGGHNNRPPGVPARFSGSLLGGKAALTLLGAQPEDEAEYYCALWYSDHWVIGGGTKLTVLGTPLGDTTHTSGKPLDGEYFTLQIRGRERFEMFRELNEALELKDAQAGKEPGGSGGAPHHHHHH
notes: SADA construct with VL5 and VH8
On to B2, for which, in experiment [5], the koff was found to be 0.00085 s⁻¹ and the kon is 27000 M⁻¹ s⁻¹. Further, the concentration giving a half-maximal response (EC50 (read off the curve)) in experiment [2] is about 0.06 µg/mL. Moreover, the Kd in experiment [6] turned out to be 31000 pM.

B3: 8DC-4 (anti-CD38 scFv-(G4S)4-huC825 anti DOTA scFv-linker-P53-linker-His tag) (bispecific antibody)
chain: B2 chain with G44C, Q249C
notes: SADA construct with VL8 and VH11 (extra disulfide in the anti-CD38 scFv), VH-VL order
For B3, the Kd in experiment [7] was determined as 532 pM; in experiment [3], 280 pM. For the same molecule, the “EC50 (read off the curve)” value was about 0.05 µg/mL in experiment [2] and about 0.07 µg/mL in experiment [4]. Besides, the kon in experiment [3] worked out at 89000 M⁻¹ s⁻¹.
